T1: Poz1 (recombinant) (S. pombe, UniProt O13852 1-249)
T1 sequence: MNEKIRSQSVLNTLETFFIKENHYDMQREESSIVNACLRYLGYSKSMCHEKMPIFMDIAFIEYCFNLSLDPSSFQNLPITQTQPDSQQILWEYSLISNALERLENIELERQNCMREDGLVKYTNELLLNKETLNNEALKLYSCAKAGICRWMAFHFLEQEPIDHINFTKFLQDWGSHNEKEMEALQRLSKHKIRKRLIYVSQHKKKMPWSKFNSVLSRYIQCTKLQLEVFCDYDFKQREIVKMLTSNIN

T2: Ccq1 N-terminal domain (Ccq1-NTD; residues 2-439) (S. pombe, UniProt Q10432 2-439)
T2 sequence: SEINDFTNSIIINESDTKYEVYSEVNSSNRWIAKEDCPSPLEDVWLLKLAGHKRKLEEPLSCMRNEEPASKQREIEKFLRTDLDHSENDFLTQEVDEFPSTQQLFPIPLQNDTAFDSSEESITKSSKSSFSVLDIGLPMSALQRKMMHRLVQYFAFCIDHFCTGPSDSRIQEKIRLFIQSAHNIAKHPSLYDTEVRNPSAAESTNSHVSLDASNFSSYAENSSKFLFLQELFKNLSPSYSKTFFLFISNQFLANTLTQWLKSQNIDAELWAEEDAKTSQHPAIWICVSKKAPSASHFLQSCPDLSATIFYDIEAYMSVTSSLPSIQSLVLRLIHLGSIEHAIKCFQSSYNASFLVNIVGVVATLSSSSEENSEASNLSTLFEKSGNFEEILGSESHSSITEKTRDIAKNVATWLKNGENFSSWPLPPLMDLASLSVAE

B1: GST-Tpz1-CTD (Tpz1 C-terminal domain, residues 406-508) (domain or fragment)
chain: SSVISCTPPAINFTSDICNEQIELEYKRKPIPDYDFMKGLETTLQELYVEHQSKKRRLELFQLTNNHQKNSEACEMCRLGLPHGSFFELLRDWKKIEEFRNKS
B2: GST-Tpz1-CTD L449A (domain or fragment)
chain: SSVISCTPPAINFTSDICNEQIELEYKRKPIPDYDFMKGLETTAQELYVEHQSKKRRLELFQLTNNHQKNSEACEMCRLGLPHGSFFELLRDWKKIEEFRNKS
B3: GST-Tpz1-CTD I501R (domain or fragment)
chain: SSVISCTPPAINFTSDICNEQIELEYKRKPIPDYDFMKGLETTLQELYVEHQSKKRRLELFQLTNNHQKNSEACEMCRLGLPHGSFFELLRDWKKREEFRNKS

Key:
Poz1 (recombinant) = target: T1, Poz1 (recombinant); experiment: pull-down
[1] = target: T2, Ccq1 N-terminal domain (Ccq1-NTD; …); experiment: pull-down

Row | Binder | binding result (Poz1 (recombinant)) | binding result [1]
1 | B1 | binds | binds
2 | B2 | binds | –
3 | B3 | – | binds
